For three substances, MFI, ABC (antibodies bound per cell) (antibodies bound per cell) and EC50 results are on record in patent US20160002357A1.

Assay [1] deals with human P-cadherin, cell surface expressed (human) (UniProt P22223). Put plainly: flow cytometry, PE-labeled mAb, SW620_Luc cells.
The target is the same in assay [2]. Put plainly: flow cytometry, PE-labeled mAb, SW480 cells.
Assay [3] shares this target. Put plainly: quantitative flow cytometry (QuantiBRITE PE), H1975_Luc cells.
Assay [4] has the same target. The assay can be described thus: quantitative flow cytometry (QuantiBRITE PE), SUM149_Luc cells.
The target is the same in assay [5]. Put plainly: flow cytometry, PE-labeled mAb, LoVo_Luc cells.
The target is the same in assay [6]. The assay can be described thus: quantitative flow cytometry (QuantiBRITE PE), Ls174T_Luc cells.
The target is the same in assay [7]. Put plainly: flow cytometry, PE-labeled mAb, H1975_Luc cells.
For assay [8] the target is unchanged. The assay can be described thus: quantitative flow cytometry (QuantiBRITE PE), HCT116_Luc cells.
The target is the same in assay [9]. Put plainly: quantitative flow cytometry (QuantiBRITE PE), HT29_Luc cells.
The target is the same in assay [10]. Put plainly: quantitative flow cytometry (QuantiBRITE PE), SUM149 cells.
For assay [11] the target is unchanged. The assay can be described thus: flow cytometry, PE-labeled mAb, SUM149 cells.
For assay [12] the target is unchanged. Put plainly: quantitative flow cytometry (QuantiBRITE PE), SW480 cells.
Assay [13] has the same target. Put plainly: flow cytometry, PE-labeled mAb, Ls174T_Luc cells.
Assay [14] shares this target. Put plainly: flow cytometry, PE-labeled mAb, SUM149_Luc cells.
Assay [15] shares this target. Put plainly: quantitative flow cytometry (QuantiBRITE PE), HCT116 cells.
Assay [16] shares this target. Put plainly: quantitative flow cytometry (QuantiBRITE PE), SW620_Luc cells.
Assay [17] has the same target. Put plainly: flow cytometry, PE-labeled mAb, H1650_Luc cells.
Assay [18] has the same target. Put plainly: flow cytometry, PE-labeled mAb, SW480_Luc cells.
For assay [19] the target is unchanged. Put plainly: flow cytometry, PE-labeled mAb, SW620 cells.
The target is the same in assay [20]. The assay can be described thus: flow cytometry, PE-labeled mAb, Colo205_Luc cells.
The target is the same in assay [21]. The assay can be described thus: quantitative flow cytometry (QuantiBRITE PE), LoVo_Luc cells.
The target is the same in assay [22]. Put plainly: flow cytometry, PE-labeled mAb, BT20_Luc cells.
Assay [23] has the same target. The assay can be described thus: flow cytometry, PE-labeled mAb, Ls174T cells.
Assay [24] shares this target. Put plainly: quantitative flow cytometry (QuantiBRITE PE), SW480_Luc cells.
Assay [25] has the same target. Put plainly: flow cytometry, PE-labeled mAb, HCT116 cells.
Assay [26] has the same target. Put plainly: quantitative flow cytometry (QuantiBRITE PE), SW620 cells.
Assay [27] shares this target. The assay can be described thus: quantitative flow cytometry (QuantiBRITE PE), Colo205_Luc cells.
For assay [28] the target is unchanged. The assay can be described thus: flow cytometry, PE-labeled mAb, H322_Luc cells.
Assay [29] shares this target. Put plainly: quantitative flow cytometry (QuantiBRITE PE), H1650_Luc cells.
Assay [30] has the same target. Put plainly: quantitative flow cytometry (QuantiBRITE PE), BT20_Luc cells.
The target is the same in assay [31]. Put plainly: quantitative flow cytometry (QuantiBRITE PE), H322_Luc cells.
Assay [32] has the same target. The assay can be described thus: flow cytometry, PE-labeled mAb, HT29_Luc cells.
The target is the same in assay [33]. Put plainly: flow cytometry, PE-labeled mAb, HCT116_Luc cells.
The target is the same in assay [34]. Put plainly: quantitative flow cytometry (QuantiBRITE PE), Ls174T cells.
For assay [35] the target is unchanged. Put plainly: flow cytometry, PE-conjugated mAb, HCT116_Luc cells.
For assay [36] the target is unchanged. Put plainly: flow cytometry, PE-conjugated mAb, Ls174T_Luc cells.
For assay [37] the target is unchanged. Put plainly: flow cytometry, PE-conjugated mAb, SUM149 cells.
For assay [38] the target is unchanged. Put plainly: flow cytometry, PE-conjugated mAb, Ls174T cells.
Assay [39] shares this target. Put plainly: flow cytometry, PE-conjugated mAb, SW480 cells.
The target is the same in assay [40]. The assay can be described thus: flow cytometry, PE-conjugated mAb, H1975_Luc cells.
The target is the same in assay [41]. The assay can be described thus: flow cytometry, PE-conjugated mAb, Colo205_Luc cells.
For assay [42] the target is unchanged. The assay can be described thus: flow cytometry, PE-conjugated mAb, H322_Luc cells.
For assay [43] the target is unchanged. The assay can be described thus: flow cytometry, PE-conjugated mAb, LoVo_Luc cells.
Assay [44] shares this target. The assay can be described thus: flow cytometry, PE-conjugated mAb, SW620_Luc cells.
The target is the same in assay [45]. Put plainly: flow cytometry, PE-conjugated mAb, SW480_Luc cells.
For assay [46] the target is unchanged. Put plainly: flow cytometry, PE-conjugated mAb, SUM149_Luc cells.
The target is the same in assay [47]. Put plainly: flow cytometry, PE-conjugated mAb, BT20_Luc cells.
Assay [48] has the same target. Put plainly: flow cytometry, PE-conjugated mAb, HT29_Luc cells.
The target is the same in assay [49]. Put plainly: flow cytometry, PE-conjugated mAb, HCT116 cells.
Assay [50] shares this target. Put plainly: flow cytometry, PE-conjugated mAb, SW620 cells.
Assay [51] has the same target. Put plainly: flow cytometry, PE-conjugated mAb, H1650_Luc cells.
Assay [52] addresses human P-cadherin expressed on the cell surface (human) (UniProt P22223). Put plainly: cell ELISA, CHO-huPcad cells.
The target is the same in assay [53]. The assay can be described thus: cell ELISA, SW480-huPcad cells.
The target in another assay is muP-cad-ECD (murine) (UniProt P10287). Put plainly: ELISA, recombinant protein.
For the next assay, the target named is huP-cad-ECD (human) (UniProt P22223). The assay can be described thus: ELISA, recombinant protein.
The target of assay [54] is huP-cad-ECD biotinylated (human) (UniProt P22223). Put plainly: ELISA, recombinant protein.
Assay [55] has as its target human P-cadherin expressed on the cell surface (human) (UniProt P22223). Put plainly: cell ELISA, H1650 cells.

human P-cadherin, cell surface expressed (human), sequence (P22223 108-829): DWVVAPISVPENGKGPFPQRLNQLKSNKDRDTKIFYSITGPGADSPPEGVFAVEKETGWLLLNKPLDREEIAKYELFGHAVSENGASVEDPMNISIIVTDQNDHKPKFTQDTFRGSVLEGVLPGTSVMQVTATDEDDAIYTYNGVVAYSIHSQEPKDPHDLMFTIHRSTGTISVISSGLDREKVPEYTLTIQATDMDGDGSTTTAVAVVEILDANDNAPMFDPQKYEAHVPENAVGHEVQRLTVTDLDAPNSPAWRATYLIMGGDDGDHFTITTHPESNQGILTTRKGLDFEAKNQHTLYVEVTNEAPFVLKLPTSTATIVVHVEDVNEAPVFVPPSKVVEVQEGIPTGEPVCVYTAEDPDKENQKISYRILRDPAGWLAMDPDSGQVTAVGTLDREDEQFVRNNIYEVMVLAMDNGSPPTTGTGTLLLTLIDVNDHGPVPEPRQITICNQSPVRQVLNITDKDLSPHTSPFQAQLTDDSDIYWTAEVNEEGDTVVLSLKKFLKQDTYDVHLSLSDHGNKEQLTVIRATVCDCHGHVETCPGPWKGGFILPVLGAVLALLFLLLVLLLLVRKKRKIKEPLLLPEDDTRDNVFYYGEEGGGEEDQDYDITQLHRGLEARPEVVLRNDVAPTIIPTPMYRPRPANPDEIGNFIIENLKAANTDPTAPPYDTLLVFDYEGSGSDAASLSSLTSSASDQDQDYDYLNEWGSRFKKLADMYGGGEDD
human P-cadherin expressed on the cell surface (human), sequence (P22223 108-829): as above
muP-cad-ECD (murine), sequence (P10287 100-647): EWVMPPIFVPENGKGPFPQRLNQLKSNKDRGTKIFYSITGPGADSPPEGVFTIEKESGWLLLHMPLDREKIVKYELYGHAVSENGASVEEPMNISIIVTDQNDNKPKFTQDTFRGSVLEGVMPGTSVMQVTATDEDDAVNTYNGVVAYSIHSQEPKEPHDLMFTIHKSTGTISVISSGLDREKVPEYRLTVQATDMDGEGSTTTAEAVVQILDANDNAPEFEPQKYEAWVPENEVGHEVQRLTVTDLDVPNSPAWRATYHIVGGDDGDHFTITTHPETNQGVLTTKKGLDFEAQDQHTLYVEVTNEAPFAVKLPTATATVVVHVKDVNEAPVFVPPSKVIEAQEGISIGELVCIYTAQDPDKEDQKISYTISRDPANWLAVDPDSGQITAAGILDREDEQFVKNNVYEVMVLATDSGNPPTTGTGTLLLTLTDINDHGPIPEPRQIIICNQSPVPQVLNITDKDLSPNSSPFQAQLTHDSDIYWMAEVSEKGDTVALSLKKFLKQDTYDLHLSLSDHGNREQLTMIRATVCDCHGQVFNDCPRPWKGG
huP-cad-ECD (human), sequence (P22223 108-654): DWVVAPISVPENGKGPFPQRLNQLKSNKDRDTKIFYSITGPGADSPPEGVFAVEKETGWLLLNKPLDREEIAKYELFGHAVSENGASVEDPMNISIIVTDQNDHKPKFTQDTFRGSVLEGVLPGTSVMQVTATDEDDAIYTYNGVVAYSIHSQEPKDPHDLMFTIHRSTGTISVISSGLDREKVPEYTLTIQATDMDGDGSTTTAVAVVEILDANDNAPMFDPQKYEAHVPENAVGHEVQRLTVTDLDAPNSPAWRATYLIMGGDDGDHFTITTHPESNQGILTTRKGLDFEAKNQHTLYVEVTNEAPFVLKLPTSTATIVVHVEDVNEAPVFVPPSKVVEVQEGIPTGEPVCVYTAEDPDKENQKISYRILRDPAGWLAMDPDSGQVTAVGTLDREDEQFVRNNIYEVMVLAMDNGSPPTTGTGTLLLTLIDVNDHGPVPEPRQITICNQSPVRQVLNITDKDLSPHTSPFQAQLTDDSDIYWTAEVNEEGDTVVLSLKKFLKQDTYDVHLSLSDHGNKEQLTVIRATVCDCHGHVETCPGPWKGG
huP-cad-ECD biotinylated (human), sequence (P22223 108-654): as above

For “anti-human P-cadherin mAb PF-03732010, phycoerythrin (PE) labeled (antibody)”, the MFI in assay [1] was 276; in assay [2], 2470; in assay [5], 1390; in assay [7], 3160; in assay [11] it was 2870; in [13], 290. The MFI came to 3720 in assay [14]; 7960 in [17]; 1260 in assay [18]; 297 in [19]; 357 in assay [20]; 5240 in assay [22]. For the same substance, the MFI in [23] worked out at 986; in assay [25], 8030; in assay [28], 3230; in assay [32], 787; in assay [33], 5660. The ABC (antibodies bound per cell) (antibodies bound per cell) in [3] was found to be 15400; in assay [4], 17000; in assay [6] it was 929; in [8], 26400; in assay [9], 2420; in assay [10], 15400. Also, the ABC (antibodies bound per cell) (antibodies bound per cell) in assay [12] worked out at 12700; in assay [15], 43800; in [16] it was 715; in assay [21], 5800; in [24] it was 5300; in assay [26] it was 1120. Also, the ABC (antibodies bound per cell) (antibodies bound per cell) in assay [27] was 874; in [29], 37600; in assay [30], 24300; in [31] it was 16600; in assay [34] it was 4160.
Turning to “control mouse IgG1 mAb (Biolegend), PE conjugated (antibody)”, the MFI in [35] came out at 229; in [36] it was 94; in [37], 68; in assay [38], 222; in assay [39], 171; in assay [40], 373. The MFI turned out to be 173 in assay [41]; 242 in assay [42]; 175 in assay [43]; 125 in assay [44]; 151 in assay [45]; 213 in [46]. For the same substance, the MFI in [47] came to 225; in [48], 282; in assay [49] it was 239; in [50] it was 88; in [51], 254.
For “anti-P-cadherin clinical mAb PF-03732010 (antibody)”, the EC50 came to 0.329 nM in assay [52]; 0.167 nM in [53]; 2.33 nM in the assay with muP-cad-ECD (murine); 1.94 nM with huP-cad-ECD (human); 0.0188 nM in assay [54]; 0.209 nM in [55].
